Drawing on patent US20160272980, this text covers activity (% mutagenesis) for one sequence.

The data set relates to PTRI20 meganuclease (engineered, pCLS17038) (artificial). Briefly: cell_activity. The conditions noted are these: P. tricornutum; 6.9% with SCTREX2 (p124); HGT up to 0.197% with donor (p171); empty vector 0.

“GTTTTACGTTGTACGACGTCTAGC (double strand) [PTRI20 target]”: the activity (% mutagenesis) was found to be 0.032.
